Measured values taken from US11419948B2, “Functionalized microgels with fibrin binding elements” (Georgia Tech Research Corporation, priority 2013, dated 2022).

Tested on: platelet poor plasma (PPP)
Assay: Dynamic in vitro clotting in endothelialized microfluidic device
Assay type: biochemical, human
Settings: platelet-poor plasma under flow
Protocol: To characterize the effect of microgels on clotting in vitro, a endothelialized microfluidics device that accurately recapitulates the cellular, physical, and hemodynamic environment of microcirculation, was used as previously described, Jackson, et al., Journal of Thrombosis and Haemostasis: JTH 7 Suppl 1:17-20 (2009). For these experiments, clotting of platelet poor plasma (PPP) was analyzed in the absence or presence of fibrin-binding microgels of varying degrees of crosslinking in real time using confocal microscopy. As a control, clotting of platelet rich plasma (PRP) or PPP in the presence of non-fibrin binding microgels were also investigated. Microgels or buffer were added to PPP immediately prior to injection into the microfluidics device. To visualize clotting, PPP was spiked with Alexa Fluor-488 labeled fibrinogen. Endothelial cells were stained with Cell Mask Deep Red (Invitrogen) and microgels were labeled with Alexa Fluor 546. For experiments utilizing PRP, platelets were stained with Cell Mask Red (Invitrogen). Samples were flowed at 1.1 μL/min and imaged continuously for 20 min. Clotting overtime was characterized through imaging processing with Image J (NIH). Each microfluidic device is comprised of three regions of different flow rates, comprising four endothelialized channels.

B1: PLPs: ultra-low crosslinked pNIPAm-AAc microgels conjugated to fibrin-specific sdFv H6 (conjugate)
VH: QVQLLESGGGLVQPGGSLRLSCAASGDRFTHNDMGWVRQAPGKGLEWVSTIPTTDGSTYYADSVKGRFTISRDNSKSTLYLQMNSLRAEDTAVYYCATGYMWKAPAYVKYWGQGTLVTVSSAAAEQKLISEEDLNSAAHYTDIG
- fibrin clot formation in response to thrombin: successfully rescued fibrin clot formation
